Consider 7 sequences from the Immune Epitope Database (IEDB).

What is called Kd is the free concentration of one partner at which half of the binding sites on the other are occupied at equilibrium, for simple one-to-one binding. Low readings indicate a tighter complex, high ones a looser complex. In general, IC50 refers to the midpoint of a concentration-inhibition curve.

Assay [1] addresses HLA-B*57:01. Description: IEDB peptide-MHC binding, purified MHC/direct/fluorescence; filed as Kd, often an IC50 or EC50 that approximates it; ≥ and ≤ were set here for values at or beyond the usual limits of such assays. Conditions: source organism: Escherichia coli O157:H7.
The target in assay [2] is HLA-B*58:01. The assay is described as above. Conditions: source organism: Escherichia coli O157:H7.
The target in the next assay is HLA-B*15:17. The assay is described as above. Conditions: source organism: Escherichia coli O157:H7.
Assay [3] has as its target HLA-C*04:01. Described as above. Conditions: source organism: Escherichia coli O139:H28 str. E24377A.
A further assay deals with HLA-B*40:01. Description: IEDB peptide-MHC binding, purified MHC/competitive/radioactivity; ≥ and ≤ were set here for values at or beyond the usual limits of such assays. Conditions: source organism: Human papillomavirus 16.
A further assay addresses HLA-B*07:02. Put plainly: IEDB peptide-MHC binding, purified MHC/competitive/fluorescence; ≥ and ≤ were set here for values at or beyond the usual limits of such assays.
Assay [4] addresses HLA-A*25:01. The assay is described as above.
A further assay deals with HLA-A*29:02. Described as above.
For the next assay, the target named is HLA-B*40:02. The assay is described as above.
Assay [5] addresses HLA-A*02:01. The description is as above.
The target of assay [6] is HLA-B*58:01. Described as above.
Assay [7] addresses HLA-A*24:02. The assay is described as above.
The target of another assay is HLA-B*35:01. The assay is described as above.
The target in a further assay is HLA-A*11:01. Described as above.
The next assay has as its target HLA-B*44:03. Described as above.
For another assay, the target named is HLA-B*53:01. The assay is described as above.
The target of a further assay is HLA-B*14:02. Described as above.
For a further assay, the target named is HLA-B*18:01. The assay is described as above.
A further assay deals with HLA-B*08:01. The assay is described as above.
Assay [8] concerns the target HLA-A*03:01. The assay is described as above.
In the next assay the target is HLA-A*01:01. Described as above.
The target of the next assay is HLA-A*68:02. The assay is described as above.
The next assay concerns the target HLA-A*31:01. Described as above.
The target of a further assay is HLA-B*37:01. Described as above.
Assay [9] concerns the target HLA-B*51:01. Described as above.
The target of assay [10] is HLA-A*24:02. Put plainly: IEDB peptide-MHC binding, purified MHC/competitive/radioactivity; ≥ and ≤ were set here for values at or beyond the usual limits of such assays. The conditions noted are these: source organism: Homo sapiens.
The target of assay [11] is HLA-A*25:01. Put plainly: IEDB peptide-MHC binding, purified MHC/competitive/fluorescence; filed as Kd, often an IC50 or EC50 that approximates it; ≥ and ≤ were set here for values at or beyond the usual limits of such assays. Conditions: source organism: Vibrio cholerae 2740-80.
Assay [12] deals with HLA-B*57:01. The description is as above. The conditions noted are these: source organism: Vibrio cholerae 2740-80.
A further assay has as its target HLA-A*02:03. The description is as above. Conditions: source organism: Vibrio cholerae 2740-80.
The target in a further assay is HLA-A*02:19. The description is as above. Conditions: source organism: Vibrio cholerae 2740-80.
The target of assay [13] is HLA-A*02:01. The description is as above. Conditions: source organism: Vibrio cholerae 2740-80.
The target of a further assay is HLA-A*02:12. Described as above. Conditions: source organism: Vibrio cholerae 2740-80.
In another assay the target is HLA-B*46:01. Described as above. The conditions noted are these: source organism: Vibrio cholerae 2740-80.
Assay [14] deals with HLA-A*03:01. The assay is described as above. The conditions noted are these: source organism: Vibrio cholerae 2740-80.
The next assay deals with HLA-A*26:01. The description is as above. Conditions: source organism: Vibrio cholerae 2740-80.
The target in the next assay is HLA-B*27:03. The assay is described as above. The conditions noted are these: source organism: Vibrio cholerae 2740-80.
A further assay concerns the target HLA-A*24:03. The description is as above. Conditions: source organism: Vibrio cholerae 2740-80.
Assay [15] addresses HLA-B*51:01. The description is as above. The conditions noted are these: source organism: Vibrio cholerae 2740-80.
For a further assay, the target named is HLA-A*02:16. The assay is described as above. The conditions noted are these: source organism: Vibrio cholerae 2740-80.
A further assay concerns the target HLA-B*73:01. The description is as above. The conditions noted are these: source organism: Giardia lamblia ATCC 50803.
The target of the next assay is HLA-B*15:42. The assay is described as above. Conditions: source organism: Giardia lamblia ATCC 50803.
For assay [16], the target named is HLA-C*04:01. The description is as above. Conditions: source organism: Giardia lamblia ATCC 50803.
Another assay concerns the target HLA-A*68:23. Described as above. Conditions: source organism: Giardia lamblia ATCC 50803.
In the next assay the target is HLA-B*45:06. The assay is described as above. The conditions noted are these: source organism: Giardia lamblia ATCC 50803.
For a further assay, the target named is HLA-B*83:01. The description is as above. Conditions: source organism: Giardia lamblia ATCC 50803.
A further assay concerns the target HLA-C*14:02. The assay is described as above. Conditions: source organism: Giardia lamblia ATCC 50803.
Another assay has as its target HLA-C*06:02. Description: IEDB peptide-MHC binding, purified MHC/direct/fluorescence; filed as Kd, often an IC50 or EC50 that approximates it; ≥ and ≤ were set here for values at or beyond the usual limits of such assays. Conditions: source organism: Giardia lamblia ATCC 50803.
For another assay, the target named is HLA-C*05:01. The description is as above. The conditions noted are these: source organism: Giardia lamblia ATCC 50803.
Setting [17] is: source organism: Ateles geoffroyi.

Take YMWECPDFF: the Kd with HLA-B*57:01 [1] was 1440 nM; with HLA-B*58:01 [2], not below 5 µM; in the assay with HLA-B*15:17 it was 157 nM; in the assay with HLA-C*04:01 [3], 137 nM.
SEYRHYCYSL: the IC50 with HLA-B*40:01 was 0.54 nM.
On to ILNRETLLDFV, for which the IC50 with HLA-B*07:02 (source organism: Homo sapiens) was not below 20000 nM; in the assay with HLA-A*25:01 [4] (source organism: Homo sapiens), not below 20 µM; with HLA-A*29:02 (source organism: Homo sapiens), 13.2 µM; with HLA-B*40:02 (source organism: Homo sapiens), 995 nM; with HLA-A*02:01 [5] (source organism: Homo sapiens), 93.9 nM; with HLA-B*58:01 [6] (source organism: Homo sapiens) it was not below 20 µM. Besides, the IC50 is not below 20 µM in the assay with HLA-A*24:02 [7] (source organism: Homo sapiens); not below 20000 nM with HLA-B*35:01 (source organism: Homo sapiens); not below 20 µM with HLA-A*11:01 (source organism: Homo sapiens); not below 20 µM with HLA-B*44:03 (source organism: Homo sapiens); not below 20000 nM with HLA-B*53:01 (source organism: Homo sapiens); not below 20 µM with HLA-B*14:02 (source organism: Homo sapiens). In addition, the IC50 is not below 20 µM in the assay with HLA-B*18:01 (source organism: Homo sapiens); not below 20 µM with HLA-B*08:01 (source organism: Homo sapiens); not below 20 µM in the assay with HLA-A*03:01 [8] (source organism: Homo sapiens); not below 20 µM in the assay with HLA-A*01:01 (source organism: Homo sapiens); not below 20000 nM with HLA-A*68:02 (source organism: Homo sapiens); not below 20 µM with HLA-A*31:01 (source organism: Homo sapiens). Moreover, the results for the IC50 in the assay with HLA-B*37:01 (source organism: Homo sapiens) and with HLA-B*51:01 [9] (source organism: Homo sapiens) were not below 20 µM and not below 20000 nM, respectively.
In the case of TYSVSFDSL, the half-inhibitory concentration (IC50) with HLA-A*24:02 [10] worked out at 197 nM.
With LPADPASVL, the IC50 with HLA-B*07:02 (setting [17]) was 134 nM; with HLA-A*25:01 [4] (setting [17]), not below 20 µM; in the assay with HLA-A*29:02 (setting [17]), 1.09 µM; with HLA-B*40:02 (setting [17]), 3300 nM; in the assay with HLA-A*02:01 [5] (setting [17]), not below 20000 nM; with HLA-B*58:01 [6] (setting [17]), not below 20 µM. Besides, the IC50 in the assay with HLA-A*24:02 [7] (setting [17]) was not below 20 µM; with HLA-B*35:01 (setting [17]), 6 nM; in the assay with HLA-A*11:01 (setting [17]), not below 20 µM; with HLA-B*44:03 (setting [17]), not below 20 µM; in the assay with HLA-B*53:01 (setting [17]) it was 1610 nM; in the assay with HLA-B*14:02 (setting [17]), 14.5 µM. For the same sequence, the IC50 with HLA-B*18:01 (setting [17]) was not below 20 µM; in the assay with HLA-B*08:01 (setting [17]), not below 20 µM; with HLA-A*03:01 [8] (setting [17]), not below 20 µM; in the assay with HLA-A*01:01 (setting [17]) it was not below 20 µM; with HLA-A*68:02 (setting [17]) it was 818 nM; with HLA-A*31:01 (setting [17]), not below 20 µM. In addition, the IC50 with HLA-B*37:01 (setting [17]) is not below 20 µM; in the assay with HLA-B*51:01 [9] (setting [17]) it was 1620 nM.
Take HSYLWDHQM: the Kd is not below 20 µM with HLA-A*25:01 [11]; 54.7 nM in the assay with HLA-B*57:01 [12]; not below 20 µM with HLA-A*02:03; not below 20 µM with HLA-A*02:19; not below 20 µM with HLA-A*02:01 [13]; not below 20 µM with HLA-A*02:12. Besides, the Kd with HLA-B*46:01, in the assay with HLA-A*03:01 [14], with HLA-A*26:01, with HLA-B*27:03, with HLA-A*24:03 and with HLA-B*51:01 [15] was not below 20 µM in each case. For the same sequence, in the assay with HLA-A*02:16, the Kd was not below 20 µM.
On to YPFHIFYPV, for which the Kd is 1330 nM with HLA-B*73:01; not below 5 µM in the assay with HLA-B*15:42; not below 5 µM with HLA-C*04:01 [16]; 43.1 nM with HLA-A*68:23; 4.7 µM in the assay with HLA-B*45:06; 136 nM with HLA-B*83:01. Besides, the Kd with HLA-C*14:02 is 189 nM; with HLA-C*06:02, not below 20 µM; in the assay with HLA-C*05:01, not below 20 µM.
